Results on one molecule are retold here after PMC11617674, “The activity of the ribonucleotide monophosphatase UmpH is controlled by interaction with the GlnK signaling protein in Escherichia coli” (The Journal of Biological Chemistry, 2024).

In the assay the target is T1, UmpH (ribonucleotide monophosphatase), untagged recombinant (E. coli, UniProt P0AF24 1-250).
T1 construct: UmpH (NagD), ribonucleotide monophosphatase of E. coli; also called NagD; untagged UmpH; source: E. coli BL21 (λDE3), pET29a, purified (ammonium sulfate, gel filtration)
T1 sequence (looked up): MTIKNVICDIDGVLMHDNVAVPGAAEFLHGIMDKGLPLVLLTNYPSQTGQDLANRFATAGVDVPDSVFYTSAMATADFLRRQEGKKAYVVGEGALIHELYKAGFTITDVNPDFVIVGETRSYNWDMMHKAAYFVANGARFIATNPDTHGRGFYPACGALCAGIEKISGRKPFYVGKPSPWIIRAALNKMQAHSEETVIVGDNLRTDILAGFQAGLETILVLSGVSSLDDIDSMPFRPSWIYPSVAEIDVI
Put plainly: pull-down; His-PII on Ni2+ magnetic beads, untagged UmpH; 50 mM Tris-HCl pH 8.0, 0.1 M NaCl, 5 mM MgCl2, 10% glycerol, 20 mM imidazole; room temperature; without nucleotides or with ATP or ADP (effectors as indicated); SDS-PAGE, Coomassie. Particulars: both partners purified.

B1: His-GlnB from Azospirillum brasilense (natural protein, UniProt P21193 1-112, looked up)
chain: MKKIEAIIKPFKLDEVKEALHEVGIKGITVTEAKGFGRQKGHTELYRGAEYVVDFLPKVKIEVVMEDSLVERAIEAIQQAAHTGRIGDGKIFVTPVEEVVRIRTGEKGGDAI
notes: GlnB, PII protein of Azospirillum brasilense; also called GlnBAb; His-AbPII; not shown: His tag, N-terminal, kept
With B1, the binding result is “binds”.
